Assay results: publication PMC11811891, “Structural insights into human TFIIIC promoter recognition” (Science Advances, 2023)

T1: human TFIIIC subunit TFIIIC102 (human, UniProt Q9Y5Q9 1-886)
T1 construct: TFIIIC102, subunit of human TFIIIC; No truncation is described; also called τ131 in yeast (homolog); GTF3C3; source: Sf21 insect cells, baculovirus, coexpressed with the other five hTFIIIC subunits; purified (anti-FLAG M2 agarose, Capto HiRes Q)
T1 sequence: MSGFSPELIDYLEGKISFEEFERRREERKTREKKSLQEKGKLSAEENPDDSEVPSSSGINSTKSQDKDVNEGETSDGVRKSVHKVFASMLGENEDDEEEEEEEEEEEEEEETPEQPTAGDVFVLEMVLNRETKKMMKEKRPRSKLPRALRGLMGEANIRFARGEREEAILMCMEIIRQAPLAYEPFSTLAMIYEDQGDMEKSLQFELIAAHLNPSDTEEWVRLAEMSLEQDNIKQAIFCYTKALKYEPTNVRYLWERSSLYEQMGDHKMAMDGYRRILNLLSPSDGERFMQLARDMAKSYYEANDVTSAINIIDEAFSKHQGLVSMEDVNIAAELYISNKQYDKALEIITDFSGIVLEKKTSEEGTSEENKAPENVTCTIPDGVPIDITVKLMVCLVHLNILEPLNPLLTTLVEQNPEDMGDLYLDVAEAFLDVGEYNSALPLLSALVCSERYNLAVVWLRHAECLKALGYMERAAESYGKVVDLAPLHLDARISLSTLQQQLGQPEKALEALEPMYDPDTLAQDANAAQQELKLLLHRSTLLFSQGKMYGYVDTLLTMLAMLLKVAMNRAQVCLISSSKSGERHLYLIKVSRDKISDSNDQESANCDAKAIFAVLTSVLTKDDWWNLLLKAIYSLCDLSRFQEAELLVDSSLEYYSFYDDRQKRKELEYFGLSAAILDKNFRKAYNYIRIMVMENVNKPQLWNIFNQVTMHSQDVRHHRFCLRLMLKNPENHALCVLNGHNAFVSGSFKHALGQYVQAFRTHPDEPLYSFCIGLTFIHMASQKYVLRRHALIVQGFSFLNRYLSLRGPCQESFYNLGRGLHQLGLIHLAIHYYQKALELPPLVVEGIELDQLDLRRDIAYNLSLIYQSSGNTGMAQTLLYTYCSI


What was measured:
[1] = molecular target: T1, human TFIIIC subunit TFIIIC102; test: cryo-EM structure; purified hTFIIIC (3.17 μM) alone or with human TRR-TCT3-2 tRNA gene DNA at a 1:1 molar ratio; EM buffer 20 mM Hepes pH 8, 225 mM KCl, 2 mM MgCl2, 5 mM DTT; 0.1% octyl-β-glucoside; separate reconstructions of τA and of dimeric τB; conditions: both partners purified
[2] = molecular target: T2, human TFIIIC subunit TFIIIC220 (human, UniProt Q12789 1-2109); test: as above; conditions: both partners purified
T2 construct: TFIIIC220, largest subunit of human TFIIIC; 2109 amino acids as printed; No truncation is described; the expected mass of 624 kDa is that of the intact complex; also called τ138 in yeast (homolog); GTF3C1; source: Sf21 insect cells, baculovirus, coexpressed with the other five hTFIIIC subunits; purified (anti-FLAG M2 agarose, Capto HiRes Q); not shown: 3x FLAG, C-terminal, kept
T2 sequence (Q12789 whole entry, the tested form may be a part): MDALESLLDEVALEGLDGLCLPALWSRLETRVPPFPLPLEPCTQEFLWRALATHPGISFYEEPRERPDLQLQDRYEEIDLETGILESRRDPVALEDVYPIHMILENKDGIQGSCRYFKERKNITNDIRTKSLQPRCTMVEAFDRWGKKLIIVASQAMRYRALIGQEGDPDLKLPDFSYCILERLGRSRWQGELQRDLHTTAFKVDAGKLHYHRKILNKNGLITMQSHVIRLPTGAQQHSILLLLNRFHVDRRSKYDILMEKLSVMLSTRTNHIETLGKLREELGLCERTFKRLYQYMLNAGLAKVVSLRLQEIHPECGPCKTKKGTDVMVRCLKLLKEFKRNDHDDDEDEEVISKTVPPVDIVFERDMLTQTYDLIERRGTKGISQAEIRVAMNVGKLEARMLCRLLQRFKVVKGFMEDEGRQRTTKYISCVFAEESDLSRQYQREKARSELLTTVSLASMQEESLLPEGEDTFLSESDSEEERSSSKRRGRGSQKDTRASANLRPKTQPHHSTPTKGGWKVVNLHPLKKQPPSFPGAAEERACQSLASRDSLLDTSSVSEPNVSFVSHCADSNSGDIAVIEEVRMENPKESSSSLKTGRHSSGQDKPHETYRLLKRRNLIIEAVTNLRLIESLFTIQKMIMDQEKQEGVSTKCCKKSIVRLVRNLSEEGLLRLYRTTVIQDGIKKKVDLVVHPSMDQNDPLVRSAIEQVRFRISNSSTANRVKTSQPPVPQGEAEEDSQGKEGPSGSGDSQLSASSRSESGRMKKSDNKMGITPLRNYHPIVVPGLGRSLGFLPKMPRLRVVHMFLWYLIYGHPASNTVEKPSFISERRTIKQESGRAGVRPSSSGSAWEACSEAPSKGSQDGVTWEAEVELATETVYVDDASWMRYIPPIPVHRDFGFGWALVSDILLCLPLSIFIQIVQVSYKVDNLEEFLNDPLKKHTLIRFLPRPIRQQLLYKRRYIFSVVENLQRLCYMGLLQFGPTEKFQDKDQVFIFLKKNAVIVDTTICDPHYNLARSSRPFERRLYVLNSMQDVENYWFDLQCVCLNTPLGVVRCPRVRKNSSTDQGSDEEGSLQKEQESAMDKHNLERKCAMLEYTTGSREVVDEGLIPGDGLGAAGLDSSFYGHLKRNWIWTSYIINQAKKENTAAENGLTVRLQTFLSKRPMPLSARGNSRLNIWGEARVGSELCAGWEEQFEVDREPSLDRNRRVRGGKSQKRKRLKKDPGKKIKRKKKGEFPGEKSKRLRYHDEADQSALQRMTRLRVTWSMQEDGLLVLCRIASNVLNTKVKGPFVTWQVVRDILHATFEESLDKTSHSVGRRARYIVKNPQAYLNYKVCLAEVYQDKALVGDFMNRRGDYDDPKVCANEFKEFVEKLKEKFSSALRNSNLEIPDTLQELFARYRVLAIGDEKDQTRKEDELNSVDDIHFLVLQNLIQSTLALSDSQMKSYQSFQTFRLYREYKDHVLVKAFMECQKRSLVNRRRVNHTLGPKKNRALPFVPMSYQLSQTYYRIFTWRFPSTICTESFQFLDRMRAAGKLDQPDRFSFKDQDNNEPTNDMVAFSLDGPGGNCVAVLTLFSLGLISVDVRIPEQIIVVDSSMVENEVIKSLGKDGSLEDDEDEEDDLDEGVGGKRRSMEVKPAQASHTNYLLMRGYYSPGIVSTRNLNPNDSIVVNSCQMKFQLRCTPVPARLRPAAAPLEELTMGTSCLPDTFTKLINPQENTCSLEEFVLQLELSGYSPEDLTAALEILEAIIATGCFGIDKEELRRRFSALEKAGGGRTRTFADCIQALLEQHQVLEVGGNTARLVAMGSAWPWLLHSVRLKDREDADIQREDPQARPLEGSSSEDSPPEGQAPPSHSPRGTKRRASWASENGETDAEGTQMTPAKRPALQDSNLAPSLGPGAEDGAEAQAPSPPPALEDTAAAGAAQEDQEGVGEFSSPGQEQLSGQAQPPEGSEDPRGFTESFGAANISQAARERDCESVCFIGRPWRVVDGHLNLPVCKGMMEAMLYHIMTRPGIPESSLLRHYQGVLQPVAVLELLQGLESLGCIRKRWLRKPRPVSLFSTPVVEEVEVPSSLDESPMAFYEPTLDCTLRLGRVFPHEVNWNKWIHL

[3] = molecular target: TFIIIC220;TFIIIC110;TFIIIC102;TFIIIC90;TFIIIC63;TFIIIC35 (human;human;human;human;human;human, UniProt Q12789;Q8WUA4;Q9Y5Q9;Q9UKN8;Q9Y5Q8;Q969F1 1-2109;1-911;1-886;1-822;1-519;1-213, |||||); test: filter binding; 150 mM KCl, 2 mM MgCl2, 4 C; Filter binding: 20 mM Tris-HCl pH 7.5, 150 mM KCl, 2 mM MgCl2, 5 mM DTT, 30 min 4 C, ~0.5 nM DNA; EMSA: 20 mM Hepes pH 8, 225 mM KCl, 2 mM MgCl2, 5 mM DTT, RT 10 min, 0.8% agarose gel at 4 C; conditions: protein: recombinant;recombinant;recombinant;recombinant;recombinant;recombinant; tags: C-terminal 3xFLAG;N-terminal TEV-cleavable His;;;N-terminal TEV-cleavable His;; copies: 1;1;1;1;1;1; label: 5'-32P; blunt
Sequence of TFIIIC220;TFIIIC110;TFIIIC102;TFIIIC90;TFIIIC63;TFIIIC35 (Q12789 whole entry, chain 1 of 3): as the sequence (Q12789 whole entry, the tested form may be a part) above
Sequence of TFIIIC220;TFIIIC110;TFIIIC102;TFIIIC90;TFIIIC63;TFIIIC35 (Q8WUA4 whole entry, chain 2 of 3): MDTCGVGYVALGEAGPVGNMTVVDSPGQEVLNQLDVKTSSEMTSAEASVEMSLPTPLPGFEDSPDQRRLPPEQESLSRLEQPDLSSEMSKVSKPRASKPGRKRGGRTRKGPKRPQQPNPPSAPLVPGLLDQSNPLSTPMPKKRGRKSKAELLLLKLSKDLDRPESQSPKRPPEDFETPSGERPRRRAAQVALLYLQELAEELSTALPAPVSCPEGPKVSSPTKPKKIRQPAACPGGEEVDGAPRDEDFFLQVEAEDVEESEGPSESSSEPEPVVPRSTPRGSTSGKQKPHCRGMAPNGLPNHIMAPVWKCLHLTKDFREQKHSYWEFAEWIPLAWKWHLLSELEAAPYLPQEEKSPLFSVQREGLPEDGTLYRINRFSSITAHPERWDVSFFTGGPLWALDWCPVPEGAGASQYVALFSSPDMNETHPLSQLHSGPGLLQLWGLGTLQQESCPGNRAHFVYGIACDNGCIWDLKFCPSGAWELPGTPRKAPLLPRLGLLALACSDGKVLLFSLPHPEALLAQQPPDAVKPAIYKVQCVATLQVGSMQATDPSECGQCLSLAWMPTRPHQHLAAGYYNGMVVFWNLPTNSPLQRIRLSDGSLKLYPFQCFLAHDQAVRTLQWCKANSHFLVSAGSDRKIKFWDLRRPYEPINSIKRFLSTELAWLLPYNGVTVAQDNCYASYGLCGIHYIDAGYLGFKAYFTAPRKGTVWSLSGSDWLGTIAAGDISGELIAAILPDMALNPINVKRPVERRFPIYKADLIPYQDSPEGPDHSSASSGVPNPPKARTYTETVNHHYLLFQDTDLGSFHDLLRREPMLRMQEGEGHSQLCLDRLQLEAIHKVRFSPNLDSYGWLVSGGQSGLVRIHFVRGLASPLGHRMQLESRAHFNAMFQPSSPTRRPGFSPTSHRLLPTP
Sequence of TFIIIC220;TFIIIC110;TFIIIC102;TFIIIC90;TFIIIC63;TFIIIC35 (Q9UKN8 whole entry, chain 4 of 3): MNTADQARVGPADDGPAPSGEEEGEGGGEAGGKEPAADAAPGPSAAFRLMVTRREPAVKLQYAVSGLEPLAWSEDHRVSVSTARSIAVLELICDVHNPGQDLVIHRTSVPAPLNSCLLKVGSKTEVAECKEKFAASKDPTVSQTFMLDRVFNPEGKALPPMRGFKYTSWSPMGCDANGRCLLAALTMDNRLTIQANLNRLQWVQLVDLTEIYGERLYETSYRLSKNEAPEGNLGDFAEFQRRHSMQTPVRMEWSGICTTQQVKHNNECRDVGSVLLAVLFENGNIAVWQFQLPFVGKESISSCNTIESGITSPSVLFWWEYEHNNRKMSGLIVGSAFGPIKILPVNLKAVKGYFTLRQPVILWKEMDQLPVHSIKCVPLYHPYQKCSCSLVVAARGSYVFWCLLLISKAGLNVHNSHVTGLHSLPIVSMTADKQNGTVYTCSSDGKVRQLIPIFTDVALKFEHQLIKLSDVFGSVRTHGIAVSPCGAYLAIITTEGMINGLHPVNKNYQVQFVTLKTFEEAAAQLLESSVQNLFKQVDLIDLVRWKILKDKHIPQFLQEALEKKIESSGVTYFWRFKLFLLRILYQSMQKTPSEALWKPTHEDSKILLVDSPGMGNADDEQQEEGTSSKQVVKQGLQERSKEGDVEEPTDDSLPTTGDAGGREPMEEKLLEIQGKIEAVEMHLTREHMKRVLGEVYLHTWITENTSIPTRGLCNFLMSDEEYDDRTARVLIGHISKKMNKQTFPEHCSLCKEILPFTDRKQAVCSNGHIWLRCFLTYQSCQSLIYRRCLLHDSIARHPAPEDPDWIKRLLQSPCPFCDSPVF

| Binder | binding result [1] | binding result [2] | Kd [3] |
| --- | --- | --- | --- |
| TFIIIC35-TFIIIC63 heterodimer (complex, human, TFIIIC35, subunit of human TFIIIC; as the chain of m6; TFIIIC63, subunit of human TFIIIC; as the chain of m5; source: Sf21 insect cells, baculovirus, coexpressed within the six-subunit hTFIIIC complex; purified (anti-FLAG M2 agarose, Capto HiRes Q)) chain 1: MAAAADERSPEDGEDEEEEEQLVLVELSGIIDSDFLSKCENKCKVLGIDTERPILQVDSCVFAGEYEDTLGTCVIFEENVEHADTEGNNKTVLKYKCHTMKKLSMTRTLLTEKKEGEENIGGVEWLQIKDNDFSYRPNMICNFLHENEDEEVVASAPDKSLELEEEEIQMNDSSNLSCEQEKPMHLEIEDSGPLIDIPSETEGSVFMETQMLP chain 2: MAAEAADLGLGAAVPVELRRERRMVCVEYPGVVRDVAKMLPTLGGEEGVSRIYADPTKRLELYFRPKDPYCHPVCANRFSTSSLLLRIRKRTRRQKGVLGTEAHSEVTFDMEILGIISTIYKFQGMSDFQYLAVHTEAGGKHTSMYDKVLMLRPEKEAFFHQELPLYIPPPIFSRLDAPVDYFYRPETQHREGYNNPPISGENLIGLSRARRPHNAIFVNFEDEEVPKQPLEAAAQTWRRVCTNPVDRKVEEELRKLFDIRPIWSRNAVKANISVHPDKLKVLLPFIAYYMITGPWRSLWIRFGYDPRKNPDAKIYQVLDFRIRCGMKHGYAPSDLPVKAKRSTYNYSLPITVKKTSSQLVTMHDLKQGLGPSGTSGARKPASSKYKLKDSVYIFREGALPPYRQMFYQLCDLNVEELQKIIHRNDGAENSCTERDGWCLPKTSDELRDTMSLMIRQTIRSKRPALFSSSAKADGGKEQLTYESGEDEEDEEEEEEEEEDFKPSDGSENEMETEILDYV | binds | binds |  |
| TRR-TCT3-2 tRNA gene, 32P-labeled (dsDNA) DNA 1: ACGTGTCTGGCTCTGTGGCGCAATGGATAGCGCATTGGACTTCTAGATAGTTAGAGAAATTCAAAGGTTGTGGGTTCGAGTCCCACAGAGTCGCTTTT DNA 2: AAAAGCGACTCTGTGGGACTCGAACCCACAACCTTTGAATTTCTCTAACTATCTAGAAGTCCAATGCGCTATCCATTGCGCCACAGAGCCAGACACGT |  |  | 40 nM |
